Numbered stars: 1 amine (or outer) side, 2 acyl side, 3 side chain; on linkers, the order of the positions; unused ones are H or OH. Bridge positions count the residues as written; N and C are the ends. Side chains are listed from the residue outwards. Ends that are not written are not given here. * marks the point of attachment. C20 diacid = O=C(O)CCCCCCCCCCCCCCCCCCC(=O)*; γGlu = O=C(O)[C@H](CCC(=O)[*:2])N[*:1]
T1: human calcitonin receptor (human, UniProt P30988 25-474)
T1 construct: whole, on cells; Membranes of BHK cells stably transfected with the human calcitonin receptor (Assay VII); also called hCTR; hCT
T1 sequence (looked up): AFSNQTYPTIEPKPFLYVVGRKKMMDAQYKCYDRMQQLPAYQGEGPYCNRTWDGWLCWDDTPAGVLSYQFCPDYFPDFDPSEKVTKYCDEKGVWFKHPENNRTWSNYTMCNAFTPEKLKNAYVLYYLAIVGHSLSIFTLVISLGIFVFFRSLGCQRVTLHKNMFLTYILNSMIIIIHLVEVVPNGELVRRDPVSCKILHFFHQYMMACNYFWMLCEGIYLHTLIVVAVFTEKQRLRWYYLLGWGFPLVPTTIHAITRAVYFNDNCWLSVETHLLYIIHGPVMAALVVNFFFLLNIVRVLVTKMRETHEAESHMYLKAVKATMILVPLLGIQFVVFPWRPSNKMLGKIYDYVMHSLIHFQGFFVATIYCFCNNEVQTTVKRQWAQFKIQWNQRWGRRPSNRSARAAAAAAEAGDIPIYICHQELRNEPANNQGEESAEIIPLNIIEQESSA

B1: N^ε1-[(4S)-4-carboxy-4-(19-carboxynonadecanoylamino)butanoyl]-[Glu14,Arg17,Pro21,Pro27,His35]-h-amylin (peptide)
peptide: K([γGlu-C20 diacid])CNTATCATQRLAEFLRHSSPNFGAIPSSTNVGSHTY-NH2
modifications: disulfide 2-7; N-terminus assumed
SMILES: CC[C@H](C)[C@H](NC(=O)[C@H](C)NC(=O)CNC(=O)[C@H](Cc1ccccc1)NC(=O)[C@H](CC(N)=O)NC(=O)[C@@H]1CCCN1C(=O)[C@H](CO)NC(=O)[C@H](CO)NC(=O)[C@H](Cc1c[nH]cn1)NC(=O)[C@H](CCCNC(=N)N)NC(=O)[C@H](CC(C)C)NC(=O)[C@H](Cc1ccccc1)NC(=O)[C@H](CCC(=O)O)NC(=O)[C@H](C)NC(=O)[C@H](CC(C)C)NC(=O)[C@H](CCCNC(=N)N)NC(=O)[C@H](CCC(N)=O)NC(=O)[C@@H](NC(=O)[C@H](C)NC(=O)[C@@H]1CSSC[C@H](NC(=O)[C@@H](N)CCCCNC(=O)CC[C@H](NC(=O)CCCCCCCCCCCCCCCCCCC(=O)O)C(=O)O)C(=O)N[C@@H](CC(N)=O)C(=O)N[C@@H]([C@@H](C)O)C(=O)N[C@@H](C)C(=O)N[C@@H]([C@@H](C)O)C(=O)N1)[C@@H](C)O)C(=O)N1CCC[C@H]1C(=O)N[C@@H](CO)C(=O)N[C@@H](CO)C(=O)N[C@H](C(=O)N[C@@H](CC(N)=O)C(=O)N[C@H](C(=O)NCC(=O)N[C@@H](CO)C(=O)N[C@@H](Cc1c[nH]cn1)C(=O)N[C@H](C(=O)N[C@@H](Cc1ccc(O)cc1)C(N)=O)[C@@H](C)O)C(C)C)[C@@H](C)O
B2: N^ε1-[(4S)-4-carboxy-4-(19-carboxynonadecanoylamino)butanoyl]-[His14,Arg17,Pro21,Pro27,Pro34,Pro37]-h-amylin (peptide)
peptide: K([γGlu-C20 diacid])CNTATCATQRLAHFLRHSSPNFGAIPSSTNVGPNTP-NH2
modifications: disulfide 2-7; N-terminus assumed
SMILES: CC[C@H](C)[C@H](NC(=O)[C@H](C)NC(=O)CNC(=O)[C@H](Cc1ccccc1)NC(=O)[C@H](CC(N)=O)NC(=O)[C@@H]1CCCN1C(=O)[C@H](CO)NC(=O)[C@H](CO)NC(=O)[C@H](Cc1c[nH]cn1)NC(=O)[C@H](CCCNC(=N)N)NC(=O)[C@H](CC(C)C)NC(=O)[C@H](Cc1ccccc1)NC(=O)[C@H](Cc1c[nH]cn1)NC(=O)[C@H](C)NC(=O)[C@H](CC(C)C)NC(=O)[C@H](CCCNC(=N)N)NC(=O)[C@H](CCC(N)=O)NC(=O)[C@@H](NC(=O)[C@H](C)NC(=O)[C@@H]1CSSC[C@H](NC(=O)[C@@H](N)CCCCNC(=O)CC[C@H](NC(=O)CCCCCCCCCCCCCCCCCCC(=O)O)C(=O)O)C(=O)N[C@@H](CC(N)=O)C(=O)N[C@@H]([C@@H](C)O)C(=O)N[C@@H](C)C(=O)N[C@@H]([C@@H](C)O)C(=O)N1)[C@@H](C)O)C(=O)N1CCC[C@H]1C(=O)N[C@@H](CO)C(=O)N[C@@H](CO)C(=O)N[C@H](C(=O)N[C@@H](CC(N)=O)C(=O)N[C@H](C(=O)NCC(=O)N1CCC[C@H]1C(=O)N[C@@H](CC(N)=O)C(=O)N[C@H](C(=O)N1CCC[C@H]1C(N)=O)[C@@H](C)O)C(C)C)[C@@H](C)O
B3: N^ε1-[(4S)-4-carboxy-4-[[(4S)-4-carboxy-4-(19-carboxynonadecanoylamino)butanoyl]amino]butanoyl]-[Arg17,Pro21,Pro27,Pro31,Pro34,Arg35]-h-amylin (peptide)
peptide: K([γGlu-γGlu-C20 diacid])CNTATCATQRLANFLRHSSPNFGAIPSSTPVGPRTY-NH2
modifications: disulfide 2-7; N-terminus assumed
SMILES: CC[C@H](C)[C@H](NC(=O)[C@H](C)NC(=O)CNC(=O)[C@H](Cc1ccccc1)NC(=O)[C@H](CC(N)=O)NC(=O)[C@@H]1CCCN1C(=O)[C@H](CO)NC(=O)[C@H](CO)NC(=O)[C@H](Cc1c[nH]cn1)NC(=O)[C@H](CCCNC(=N)N)NC(=O)[C@H](CC(C)C)NC(=O)[C@H](Cc1ccccc1)NC(=O)[C@H](CC(N)=O)NC(=O)[C@H](C)NC(=O)[C@H](CC(C)C)NC(=O)[C@H](CCCNC(=N)N)NC(=O)[C@H](CCC(N)=O)NC(=O)[C@@H](NC(=O)[C@H](C)NC(=O)[C@@H]1CSSC[C@H](NC(=O)[C@@H](N)CCCCNC(=O)CC[C@H](NC(=O)CC[C@H](NC(=O)CCCCCCCCCCCCCCCCCCC(=O)O)C(=O)O)C(=O)O)C(=O)N[C@@H](CC(N)=O)C(=O)N[C@@H]([C@@H](C)O)C(=O)N[C@@H](C)C(=O)N[C@@H]([C@@H](C)O)C(=O)N1)[C@@H](C)O)C(=O)N1CCC[C@H]1C(=O)N[C@@H](CO)C(=O)N[C@@H](CO)C(=O)N[C@H](C(=O)N1CCC[C@H]1C(=O)N[C@H](C(=O)NCC(=O)N1CCC[C@H]1C(=O)N[C@@H](CCCNC(=N)N)C(=O)N[C@H](C(=O)N[C@@H](Cc1ccc(O)cc1)C(N)=O)[C@@H](C)O)C(C)C)[C@@H](C)O
B4: N^ε1-[(4S)-4-carboxy-4-(19-carboxynonadecanoylamino)butanoyl]-[Glu14,Arg17,Pro21,Pro27,Pro34,Pro37]-h-amylin (peptide)
peptide: K([γGlu-C20 diacid])CNTATCATQRLAEFLRHSSPNFGAIPSSTNVGPNTP-NH2
modifications: disulfide 2-7; N-terminus assumed
SMILES: CC[C@H](C)[C@H](NC(=O)[C@H](C)NC(=O)CNC(=O)[C@H](Cc1ccccc1)NC(=O)[C@H](CC(N)=O)NC(=O)[C@@H]1CCCN1C(=O)[C@H](CO)NC(=O)[C@H](CO)NC(=O)[C@H](Cc1c[nH]cn1)NC(=O)[C@H](CCCNC(=N)N)NC(=O)[C@H](CC(C)C)NC(=O)[C@H](Cc1ccccc1)NC(=O)[C@H](CCC(=O)O)NC(=O)[C@H](C)NC(=O)[C@H](CC(C)C)NC(=O)[C@H](CCCNC(=N)N)NC(=O)[C@H](CCC(N)=O)NC(=O)[C@@H](NC(=O)[C@H](C)NC(=O)[C@@H]1CSSC[C@H](NC(=O)[C@@H](N)CCCCNC(=O)CC[C@H](NC(=O)CCCCCCCCCCCCCCCCCCC(=O)O)C(=O)O)C(=O)N[C@@H](CC(N)=O)C(=O)N[C@@H]([C@@H](C)O)C(=O)N[C@@H](C)C(=O)N[C@@H]([C@@H](C)O)C(=O)N1)[C@@H](C)O)C(=O)N1CCC[C@H]1C(=O)N[C@@H](CO)C(=O)N[C@@H](CO)C(=O)N[C@H](C(=O)N[C@@H](CC(N)=O)C(=O)N[C@H](C(=O)NCC(=O)N1CCC[C@H]1C(=O)N[C@@H](CC(N)=O)C(=O)N[C@H](C(=O)N1CCC[C@H]1C(N)=O)[C@@H](C)O)C(C)C)[C@@H](C)O
B5: N^ε1-[(4S)-4-carboxy-4-(19-carboxynonadecanoylamino)butanoyl]-[Glu14,Arg17,Pro21,Pro27,Pro34,Arg35]-h-amylin (peptide)
peptide: K([γGlu-C20 diacid])CNTATCATQRLAEFLRHSSPNFGAIPSSTNVGPRTY-NH2
modifications: disulfide 2-7; N-terminus assumed
SMILES: CC[C@H](C)[C@H](NC(=O)[C@H](C)NC(=O)CNC(=O)[C@H](Cc1ccccc1)NC(=O)[C@H](CC(N)=O)NC(=O)[C@@H]1CCCN1C(=O)[C@H](CO)NC(=O)[C@H](CO)NC(=O)[C@H](Cc1c[nH]cn1)NC(=O)[C@H](CCCNC(=N)N)NC(=O)[C@H](CC(C)C)NC(=O)[C@H](Cc1ccccc1)NC(=O)[C@H](CCC(=O)O)NC(=O)[C@H](C)NC(=O)[C@H](CC(C)C)NC(=O)[C@H](CCCNC(=N)N)NC(=O)[C@H](CCC(N)=O)NC(=O)[C@@H](NC(=O)[C@H](C)NC(=O)[C@@H]1CSSC[C@H](NC(=O)[C@@H](N)CCCCNC(=O)CC[C@H](NC(=O)CCCCCCCCCCCCCCCCCCC(=O)O)C(=O)O)C(=O)N[C@@H](CC(N)=O)C(=O)N[C@@H]([C@@H](C)O)C(=O)N[C@@H](C)C(=O)N[C@@H]([C@@H](C)O)C(=O)N1)[C@@H](C)O)C(=O)N1CCC[C@H]1C(=O)N[C@@H](CO)C(=O)N[C@@H](CO)C(=O)N[C@H](C(=O)N[C@@H](CC(N)=O)C(=O)N[C@H](C(=O)NCC(=O)N1CCC[C@H]1C(=O)N[C@@H](CCCNC(=N)N)C(=O)N[C@H](C(=O)N[C@@H](Cc1ccc(O)cc1)C(N)=O)[C@@H](C)O)C(C)C)[C@@H](C)O
B6: N^ε1-[(4S)-4-carboxy-4-(19-carboxynonadecanoylamino)butanoyl]-[His14,Arg17,Pro21,Pro27,Pro31,Pro34]-h-amylin (peptide)
peptide: K([γGlu-C20 diacid])CNTATCATQRLAHFLRHSSPNFGAIPSSTPVGPNTY-NH2
modifications: disulfide 2-7; N-terminus assumed
SMILES: CC[C@H](C)[C@H](NC(=O)[C@H](C)NC(=O)CNC(=O)[C@H](Cc1ccccc1)NC(=O)[C@H](CC(N)=O)NC(=O)[C@@H]1CCCN1C(=O)[C@H](CO)NC(=O)[C@H](CO)NC(=O)[C@H](Cc1c[nH]cn1)NC(=O)[C@H](CCCNC(=N)N)NC(=O)[C@H](CC(C)C)NC(=O)[C@H](Cc1ccccc1)NC(=O)[C@H](Cc1c[nH]cn1)NC(=O)[C@H](C)NC(=O)[C@H](CC(C)C)NC(=O)[C@H](CCCNC(=N)N)NC(=O)[C@H](CCC(N)=O)NC(=O)[C@@H](NC(=O)[C@H](C)NC(=O)[C@@H]1CSSC[C@H](NC(=O)[C@@H](N)CCCCNC(=O)CC[C@H](NC(=O)CCCCCCCCCCCCCCCCCCC(=O)O)C(=O)O)C(=O)N[C@@H](CC(N)=O)C(=O)N[C@@H]([C@@H](C)O)C(=O)N[C@@H](C)C(=O)N[C@@H]([C@@H](C)O)C(=O)N1)[C@@H](C)O)C(=O)N1CCC[C@H]1C(=O)N[C@@H](CO)C(=O)N[C@@H](CO)C(=O)N[C@H](C(=O)N1CCC[C@H]1C(=O)N[C@H](C(=O)NCC(=O)N1CCC[C@H]1C(=O)N[C@@H](CC(N)=O)C(=O)N[C@H](C(=O)N[C@@H](Cc1ccc(O)cc1)C(N)=O)[C@@H](C)O)C(C)C)[C@@H](C)O

Assays:
[1] = molecular target: T1, human calcitonin receptor; assay: SPA competition against 125I-calcitonin, membranes of BHK cells with human calcitonin receptor (Assay VII)
Summary of the method: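 BHK hCTR membranes 35 ng/μL + SPA beads 0.05 mg/well; buffer 50 mM Hepes pH 7.4, 1 mM CaCl2, 5 mM MgCl₂, 0.1% OA, 0.02% Tween20. 120 min, 25° C., shaking. Scintillation count; IC50 by one-site binding competition.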

[2] = molecular target: T1, human calcitonin receptor; assay: ratio of IC50 at hCTR over IC50 at hAmylin-R (SPA competition assays)
Summary of the method: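 IC₅₀ values were derived by one-site competition analysis of SPA counts. Cell membranes (35 ng/μL) with SPA beads were incubated with test compounds for 120 min at 25° C in Hepes buffer, pH 7.4, containing CaCl2, MgCl₂, OA and Tween20.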

Row | Binder | IC50 [1] | Ratio hCT/hAmylin binding [2]
1 | B1 | 26.1 nM | 26.4
2 | B2 | 0.157 nM | 1.2
3 | B3 | 42.8 nM | 48.6
4 | K([γGlu-C20 diacid])CNTATCATQRLAEFLRHSSPNFGAIPSSTNVGPHTY-NH2 (disulfide 2-7) | 3.8 nM | 21.2
5 | B4 | 0.117 nM | 0.5
6 | B5 | 6.3 nM | 38.6
7 | B6 | 2.04 nM | 24.8

— US20140087995A1 (published 2014)
